Measurements: paper PMC11441981

Experiments:
Assay in all cases: GST pull-down from S2 cell lysate with mass spectrometry (volcano plot of spectral intensities)
[1] = target: Ostδ; settings: three biological replicates, read off a plot
[2] = target: γCOP; settings: three biological replicates, read off a plot
[3] = target: Ostγ; settings: three biological replicates, read off a plot
[4] = target: Arf79F; settings: three biological replicates, read off a plot
[5] = target: CG33303; settings: three biological replicates, read off a plot
[6] = target: εCOP; settings: three biological replicates, read off a plot
[7] = target: T1, Prat, Q27601; settings: chain shown with the change, three biological replicates, read off a plot
T1 chain: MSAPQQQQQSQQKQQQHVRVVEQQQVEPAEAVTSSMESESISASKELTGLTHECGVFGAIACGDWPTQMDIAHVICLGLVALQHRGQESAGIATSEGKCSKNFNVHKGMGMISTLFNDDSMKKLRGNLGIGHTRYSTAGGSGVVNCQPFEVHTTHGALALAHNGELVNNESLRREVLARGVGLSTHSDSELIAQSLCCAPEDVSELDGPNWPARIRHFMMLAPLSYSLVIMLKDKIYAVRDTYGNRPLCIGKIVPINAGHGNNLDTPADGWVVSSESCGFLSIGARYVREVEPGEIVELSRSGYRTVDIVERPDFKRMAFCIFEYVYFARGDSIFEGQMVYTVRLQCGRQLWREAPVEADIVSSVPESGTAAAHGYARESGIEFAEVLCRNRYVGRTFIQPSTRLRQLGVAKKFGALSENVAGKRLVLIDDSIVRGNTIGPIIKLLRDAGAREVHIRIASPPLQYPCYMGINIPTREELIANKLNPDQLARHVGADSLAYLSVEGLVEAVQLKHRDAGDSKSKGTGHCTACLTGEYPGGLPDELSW

## GST-tagged CG9590 (Drosophila FAM114A) (from UniProt Q9VF39) W24A; W27A
[1]
  other: Difference Log2(CG9590-GST, Wild-type vs W24,27A mutant): 1.7 log2
[2]
  other: Difference Log2(CG9590-GST, Wild-type vs W24,27A mutant): 6.3 log2
[3]
  other: Difference Log2(CG9590-GST, Wild-type vs W24,27A mutant): 1.1 log2
[4]
  other: Difference Log2(CG9590-GST, Wild-type vs W24,27A mutant): 1.4 log2
[5]
  other: Difference Log2(CG9590-GST, Wild-type vs W24,27A mutant): 2.5 log2
[6]
  other: Difference Log2(CG9590-GST, Wild-type vs W24,27A mutant): 5.5 log2

B1: GST-tagged CG9590 (Drosophila FAM114A), Q9VF39 W24A; W27A (protein)
chain: MAKNPKKEEDGGNDWAQSDEDDNADDAGDDDDKFVHVEKEQQPQEKVSSRNDAKGTAENQEKLETPRISAPATASATSSSWGLWGGKLSSVLTTATEGLGTITTQVNQGLNQIIGVPDPEELARINVAEKAEKAAKAPPEENVDDEKESSAAFGLDFVTNLGSKVLNTGLDTLEGIGKKTMTILQDNDPKLMNKRKLLGLEANSPNLSAVLLEAKKEADQMEQSLQQLQLKRQKAQLRFEILFENYCGLVHFEALEILSKESRLKLDTLLDAVSGNARAELQETINEVKELIELEDLDVESEGDYEAEELSERLAATIKDAELGIQFDDIANHWTQSLSWLTSEEATAADLEQAYAKSIHALSEACALEMCKLHKIAELLLVKPHHSTANEVDGVVNLCQQFNGHLQGLSHRFAAVLSGKSETEESKGRVSTFFSEMLSAVQFIEKAYKLFTPILQMGAV
[7]
  other: Difference Log2(CG9590-GST, Wild-type vs W24,27A mutant): 9.8 log2
